Values of other authors as cited in paper PMC8241641 (European Journal of Nuclear Medicine and Molecular Imaging, 2021).

Parameters: method as in PMID 28864620

[^177Lu]Lu-DOTA-TATE
Dose to the bone marrow typically calculated: 0.03–0.07 Gy/GBq
